Test results: patent US20250188166A1 (BRIGHT PEAK THERAPEUTICS, published 2025)
Residue numbers refer to the chain shown, from its start. Names and notes keep the numbering of the source. Values joined by “and” are separate entries in the source; they are usually repeats but may differ in a detail not shown here. Equal values may be shown once.

B1: IL-18 polypeptide SEQ ID NO: 30 (E6K, V11I, C38A, K53A, T63A, C76A, C127A) (ligand)
chain: YFGKLKSKLSIIRNLNDQVLFIDQGNRPLFEDMTDSDARDNAPRTIFIISMYADSQPRGMAVAISVKCEKISTLSAENKIISFKEMNPPDNIKDTKSDIIFFQRSVPGHDNKMQFESSSYEGYFLAAEKERDLFKLILKKEDELGDRSIMFTVQNED
notes: also called C086; IL-18 variant
B2: IL-18 polypeptide C141 (SEQ ID NO: 71) (ligand)
chain: GYFGKLKSKLSIIRNLNDQVLFIDQGNRPLFEDMTDSDARDNAPRTIFIISMYADSQPRGMAVAISVKCEKISTLSAENKIISFKEMNPPDNIKDTKSDIIFFQRSVPGHDNKMQFESSSYEGYFLAAEKERDLFKLILKKEDELGDRSIMFTVQNED
B3: IL-18 polypeptide C192 (SEQ ID NO: 70) (ligand)
chain: B2 chain with M52G
B4: IL-18 polypeptide C140 (SEQ ID NO: 72) (ligand)
chain: GGGGYFGKLKSKLSIIRNLNDQVLFIDQGNRPLFEDMTDSDARDNAPRTIFIISMYADSQPRGMAVAISVKCEKISTLSAENKIISFKEMNPPDNIKDTKSDIIFFQRSVPGHDNKMQFESSSYEGYFLAAEKERDLFKLILKKEDELGDRSIMFTVQNED
B5: IL-18 polypeptide C165 (ligand)
chain: B1 chain with K6E, A53K, S55R, A63T
B6: IL-18 polypeptide C181 (ligand)
chain: B1 chain with V153E
B7: IL-18 polypeptide SEQ ID NO: 59 (E6K, C38A, K53A) (ligand)
chain: B1 chain with I11V, A63T, A76C, A127C
B8: IL-18 polypeptide C167 (ligand)
chain: B1 chain with K6E, A53K, A63T, S105I
B9: IL-18 polypeptide C174 (ligand)
chain: B1 chain with K8L
B10: IL-18 polypeptide SEQ ID NO: 62 (E6K, C38A, K53A, C127A) (ligand)
chain: B1 chain with I11V, A63T, A76C
B11: IL-18 polypeptide C166 (ligand)
chain: B1 chain with K6E, A53K, S55T, A63T
B12: IL-18 polypeptide SEQ ID NO: 42 (E06K, K53A, S55A, T63A) (ligand)
chain: B1 chain with I11V, A38C, S55A, A76C, A127C
B13: IL-18 polypeptide C176 (ligand)
chain: B1 chain with I49M
B14: IL-18 polypeptide SEQ ID NO: 60 (E6K, C38Q, K53A) (ligand)
chain: B1 chain with I11V, A38Q, A63T, A76C, A127C
B15: IL-18 polypeptide C184 (ligand)
chain: B1 chain with K6R
B16: IL-18 polypeptide SEQ ID NO: 54 (E06K, K53A, C38S, C68S, C76S, C127S, K70C) (ligand)
chain: B1 chain with I11V, A38S, A63T, C68S, K70C, A76S, A127S
B17: IL-18 polypeptide C183 (SEQ ID NO: 69) (ligand)
chain: B1 chain with M51G
B18: IL-18 polypeptide C179 (ligand)
chain: B1 chain with K8E, Q103R
B19: IL-18 polypeptide SEQ ID NO: 56 (E6K, K53A, C38S, C76S, C127S) (ligand)
chain: B1 chain with I11V, A38S, A63T, A76S, A127S
B20: IL-18 polypeptide SEQ ID NO: 57 (E6K, C38S, K53A) (ligand)
chain: B1 chain with I11V, A38S, A63T, A76C, A127C
B21: IL-18 polypeptide C168 (ligand)
chain: B1 chain with K6E, A53K, A63T, S105K
B22: IL-18 polypeptide C178 (ligand)
chain: B1 chain with Q103R
B23: IL-18 polypeptide C182 (ligand)
chain: B1 chain with V153Y
B24: IL-18 polypeptide SEQ ID NO: 34 (E06K, K53A, S55A) (ligand)
chain: B1 chain with I11V, A38C, S55A, A63T, A76C, A127C
B25: IL-18 polypeptide C177 (ligand)
chain: B1 chain with I49R
B26: IL-18 polypeptide SEQ ID NO: 50 (E06K, K53A, T63A) (ligand)
chain: B1 chain with I11V, A38C, A76C, A127C
B27: Pembrolizumab/Keytruda (antibody, human IgG4 S228P, kappa)
heavy: not shown
light: EIVLTQSPATLSLSPGERATLSCRASKGVSTSGYSYLHWYQQKPGQAPRLLIYLASYLESGVPARFSGSGSGTDFTLTISSLEPEDFAVYYCQHSRDLPLTFGGGTKVEIKRTVAAPSVFIFPPSDEQLKSGTASVVCLLNNFYPREAKVQWKVDNALQSGNSQESVTEQDSKDSTYSLSSTLTLSKADYEKHKVYACEVTHQGLSSPVTKSFNRGEC
notes: also called Lambrolizumab; MK-3475

Target: T1, IL-18R on HEK-Blue IL18R reporter cells (UniProt Q13478 19-541; O95256 20-599)
T1 sequence (looked up) 1: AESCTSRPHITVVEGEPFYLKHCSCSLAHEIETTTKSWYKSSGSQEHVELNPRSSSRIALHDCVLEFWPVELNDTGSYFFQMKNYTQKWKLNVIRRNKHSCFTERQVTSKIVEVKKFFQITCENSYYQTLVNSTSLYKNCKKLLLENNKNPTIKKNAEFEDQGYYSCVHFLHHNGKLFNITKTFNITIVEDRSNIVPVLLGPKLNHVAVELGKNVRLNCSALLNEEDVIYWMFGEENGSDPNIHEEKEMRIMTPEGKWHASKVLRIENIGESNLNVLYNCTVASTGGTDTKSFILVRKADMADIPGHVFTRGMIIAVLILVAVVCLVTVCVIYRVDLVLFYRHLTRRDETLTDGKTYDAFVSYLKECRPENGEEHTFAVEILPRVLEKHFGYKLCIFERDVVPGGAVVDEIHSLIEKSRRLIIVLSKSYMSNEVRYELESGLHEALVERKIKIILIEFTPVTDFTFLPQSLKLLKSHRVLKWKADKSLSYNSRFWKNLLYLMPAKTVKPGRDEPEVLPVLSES
T1 sequence (looked up) 2: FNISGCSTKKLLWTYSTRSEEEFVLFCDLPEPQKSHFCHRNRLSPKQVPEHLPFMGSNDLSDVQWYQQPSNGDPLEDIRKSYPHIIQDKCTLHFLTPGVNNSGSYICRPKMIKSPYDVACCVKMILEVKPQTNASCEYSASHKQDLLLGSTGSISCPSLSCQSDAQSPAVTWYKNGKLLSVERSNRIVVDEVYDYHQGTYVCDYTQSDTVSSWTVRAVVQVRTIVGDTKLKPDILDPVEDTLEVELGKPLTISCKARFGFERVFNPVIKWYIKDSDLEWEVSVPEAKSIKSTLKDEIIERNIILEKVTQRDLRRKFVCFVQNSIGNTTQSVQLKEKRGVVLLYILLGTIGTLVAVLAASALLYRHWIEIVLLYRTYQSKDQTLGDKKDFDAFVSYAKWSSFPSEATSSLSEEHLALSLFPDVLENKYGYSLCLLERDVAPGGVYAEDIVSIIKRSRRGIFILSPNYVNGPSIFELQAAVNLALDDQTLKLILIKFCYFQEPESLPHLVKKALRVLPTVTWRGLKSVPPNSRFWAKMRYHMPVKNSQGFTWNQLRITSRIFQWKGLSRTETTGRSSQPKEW
Experiment: cell-based or functional assay

For B1, the “EC50 (read off the curve)” value was roughly 0.05 pM.

Target: T1, IL-18R on HEK-Blue IL18R reporter cells
Experiment: cell-based or functional assay
Remark: another data set of the same source

Going from B2 to B3, the “EC50, HEK-Blue IL18R SEAP reporter” value rises from 1.68 pM to 14 pM (8.3-fold).

B4 and B5 are within 1.5-fold of each other in “EC50, HEK-Blue IL18R SEAP reporter” value: 2.5 pM for the first, 1.91 pM for the second.

Going from B6 to B7, the “EC50, HEK-Blue IL18R SEAP reporter” value rises from 0.1 pM to 0.268 pM (2.7-fold).

First: B8
Second: B9
The “EC50, HEK-Blue IL18R SEAP reporter” value of the first is 19-fold higher: 5.37 pM for the first, 0.29 pM for the second.

First: B10
Second: B11
The “EC50, HEK-Blue IL18R SEAP reporter” value of the first is 28-fold lower: 0.17 pM for the first, 4.73 pM for the second.

Going from B1 to B12, the “EC50, HEK-Blue IL18R SEAP reporter” value rises from 0.034 pM to 0.79 pM (23-fold).

Going from B13 to B14, the “EC50, HEK-Blue IL18R SEAP reporter” value rises from 0.07 pM to 0.203 pM (2.9-fold).

First: B15
Second: B16
The “EC50, HEK-Blue IL18R SEAP reporter” value of the first is 230-fold lower: 0.04 pM for the first, 9.12 pM for the second.

First: B17
Second: B18
The “EC50, HEK-Blue IL18R SEAP reporter” value of the first is 4-fold lower: 0.1 pM for the first, 0.4 pM for the second.

First: B19
Second: B21
The “EC50, HEK-Blue IL18R SEAP reporter” value of the first is 2.1-fold lower: 3.73 pM for the first, 7.73 pM for the second.

Going from B22 to B23, the “EC50, HEK-Blue IL18R SEAP reporter” value falls from 0.26 pM to 0.08 pM (3.2-fold).

Compared with B24, B25 is 6800-fold lower in “EC50, HEK-Blue IL18R SEAP reporter” value: 272 pM for the first, 0.04 pM for the second.

For B26, the “EC50, HEK-Blue IL18R SEAP reporter” value was 1.77 pM.

B20 was tested, and the “EC50, HEK-Blue IL18R SEAP reporter” value was 0.86 pM and 0.53 pM.

Target: T1, IL-18R on HEK-Blue IL18R reporter cells
Experiment: cell-based or functional assay
Remark: another data set of the same source

In the case of B1, the “IL-18R Hek Blue assay EC50” value is reported as 0.057 pM.

Target: T2, His-tagged human IL-18BP (human, UniProt O95998 31-194, limits assumed)
T2 construct: also called human IL-18BP-His
T2 sequence (looked up): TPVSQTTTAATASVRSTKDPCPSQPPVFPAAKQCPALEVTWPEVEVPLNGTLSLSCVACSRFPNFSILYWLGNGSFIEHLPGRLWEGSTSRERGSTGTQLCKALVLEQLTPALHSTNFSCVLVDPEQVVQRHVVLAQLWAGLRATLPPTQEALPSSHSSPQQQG
Experiment: AlphaLISA of free IL-18BP: IL-18 analyte titrated in the presence of 5 ng/ml His-tagged human IL-18BP; loss of free IL-18BP signal

For B1, the “IC50 (read off the curve)” value was roughly 9000 pM.

Target: T3, recombinant biotinylated human FcRn (human, UniProt P55899 24-297; P61769 21-119, limits assumed, biotinylated)
T3 construct: Kit reagent; also called human neonatal Fc receptor
Experiment: AlphaLISA competition at pH 6: test antibody titrated against human IgG acceptor beads for biotinylated human FcRn on streptavidin donor beads; normalized signal

With B27 the “IC50 (read off the curve)” value was roughly 8000 pM.
